Among the data in paper PMC9408373 (2022) are Kd values, retold here.

In experiment [1] the target is T1, human CDC42 (aa 1-178), wild type (human, UniProt P60953 1-178). The experiment is described as follows: FP; mGDP-bound CDC42.
Experiment [2] concerns the target T1, human CDC42 (aa 1-178), wild type. The experiment is described as follows: FP; mGppNHp-bound CDC42.

T1 sequence (P60953 1-178): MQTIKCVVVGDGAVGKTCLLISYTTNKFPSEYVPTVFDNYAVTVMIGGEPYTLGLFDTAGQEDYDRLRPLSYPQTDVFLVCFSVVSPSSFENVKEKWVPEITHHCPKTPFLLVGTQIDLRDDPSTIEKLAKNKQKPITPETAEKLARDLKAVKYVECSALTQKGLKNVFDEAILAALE

B1: human IQGAP2 GRD2 (aa 875-1246) (domain or fragment)
chain: SKERRKTLETYQQLFYLLQTNPLYLAKLIFQMPQNKSTKFMDTVIFTLYNYASNQREEYLLLKLFKTALEEEIKSKVDQVQDIVTGNPTVIKMVVSFNRGARGQNTLRQLLAPVVKEIIDDKSLIINTNPVEVYKAWVNQLETQTGEASKLPYDVTTEQALTYPEVKNKLEASIENLRRVTDKVLNSIISSLDLLPYGLRYIAKVLKNSIHEKFPDATEDELLKIVGNLLYYRYMNPAIVAPDGFDIIDMTAGGQINSDQRRNLGSVAKVLQHAASNKLFEGENEHLSSMNNYLSETYQEFRKYFKEACNVPEPEEKFNMDKYTDLVTVSKPVIYISIEEIISTHSLLLEHQDAIAPEKNDLLSELLGSLGE
One may read the Kd as a measure of binding affinity in units of concentration. A high value points to lower affinity. As to B1, in experiment [1], binding was characterised by a dissociation constant (Kd) of 55 µM.

B2: human IQGAP1 C794 (aa 863-1657) (domain or fragment)
chain: DPPMVVVRKFVHLLDQSDQDFQEELDLMKMREEVITLIRSNQQLENDLNLMDIKIGLLVKNKITLQDVVSHSKKLTKKNKEQLSDMMMINKQKGGLKALSKEKREKLEAYQHLFYLLQTNPTYLAKLIFQMPQNKSTKFMDSVIFTLYNYASNQREEYLLLRLFKTALQEEIKSKVDQIQEIVTGNPTVIKMVVSFNRGARGQNALRQILAPVVKEIMDDKSLNIKTDPVDIYKSWVNQMESQTGEASKLPYDVTPEQALAHEEVKTRLDSSIRNMRAVTDKFLSAIVSSVDKIPYGMRFIAKVLKDSLHEKFPDAGEDELLKIIGNLLYYRYMNPAIVAPDAFDIIDLSAGGQLTTDQRRNLGSIAKMLQHAASNKMFLGDNAHLSIINEYLSQSYQKFRRFFQTACDVPELQDKFNVDEYSDLVTLTKPVIYISIGEIINTHTLLLDHQDAIAPEHNDPIHELLDDLGEVPTIESLIGESSGNLNDPNKEALAKTEVSLTLTNKFDVPGDENAEMDARTILLNTKRLIVDVIRFQPGETLTEILETPATSEQEAEHQRAMQRRAIRDAKTPDKMKKSKSVKEDSNLTLQEKKEKIQTGLKKLTELGTVDPKNKYQELINDIARDIRNQRRYRQRRKAELVKLQQTYAALNSKATFYGEQVDYYKSYIKTCLDNLASKGKVSKKPREMKGKKSKKISLKYTAARLHEKGVLLEIEDLQVNQFKNVIFEISPTEEVGDFEVKAKFMGVQMETFMLHYQDLLQLQYEGVAVMKLFDRAKVNVNLLIFLLNKKFYGK
The molecule B2 displayed a Kd in experiment [1] of 64 µM.

B3: human IQGAP1 GRD1 (aa 962-1345) (domain or fragment)
chain: SKEKREKLEAYQHLFYLLQTNPTYLAKLIFQMPQNKSTKFMDSVIFTLYNYASNQREEYLLLRLFKTALQEEIKSKVDQIQEIVTGNPTVIKMVVSFNRGARGQNALRQILAPVVKEIMDDKSLNIKTDPVDIYKSWVNQMESQTGEASKLPYDVTPEQALAHEEVKTRLDSSIRNMRAVTDKFLSAIVSSVDKIPYGMRFIAKVLKDSLHEKFPDAGEDELLKIIGNLLYYRYMNPAIVAPDAFDIIDLSAGGQLTTDQRRNLGSIAKMLQHAASNKMFLGDNAHLSIINEYLSQSYQKFRRFFQTACDVPELQDKFNVDEYSDLVTLTKPVIYISIGEIINTHTLLLDHQDAIAPEHNDPIHELLDDLGEVPTIESLIGESS
On to B3, for which the dissociation constant (Kd) in experiment [1] stood at 150 µM; in experiment [2], 152 µM.

B4: human IQGAP2 C795 (aa 780-1575) (domain or fragment)
chain: PLTVIRKFVYLLDQSDLDFQEELEVARLREEVVTKIRANQQLEKDLNLMDIKIGLLVKNRITLEDVISHSKKLNKKKGGEMEILNNTDNQGIKSLSKERRKTLETYQQLFYLLQTNPLYLAKLIFQMPQNKSTKFMDTVIFTLYNYASNQREEYLLLKLFKTALEEEIKSKVDQVQDIVTGNPTVIKMVVSFNRGARGQNTLRQLLAPVVKEIIDDKSLIINTNPVEVYKAWVNQLETQTGEASKLPYDVTTEQALTYPEVKNKLEASIENLRRVTDKVLNSIISSLDLLPYGLRYIAKVLKNSIHEKFPDATEDELLKIVGNLLYYRYMNPAIVAPDGFDIIDMTAGGQINSDQRRNLGSVAKVLQHAASNKLFEGENEHLSSMNNYLSETYQEFRKYFKEACNVPEPEEKFNMDKYTDLVTVSKPVIYISIEEIISTHSLLLEHQDAIAPEKNDLLSELLGSLGEVPTVESFLGEGAVDPNDPNKANTLSQLSKTEISLVLTSKYDIEDGEAIDSRSLMIKTKKLIIDVIRNQPGNTLTEILETPATAQQEVDHATDMVSRAMIDSRTPEEMKHSQSMIEDAQLPLEQKKRKIQRNLRTLEQTGHVSSENKYQDILNEIAKDIRNQRIYRKLRKAELAKLQQTLNALNKKAAFYEEQINYYDTYIKTCLDNLKRKNTRRSIKLDGKGEPKGAKRAKPVKYTAAKLHEKGVLLDIDDLQTNQFKNVTFDIIATEDVGIFDVRSKFLGVEMEKVQLNIQDLLQMQYEGVAVMKMFDKVKVNVNLLIYLLNKKFYGK
Consider B4, for which, in experiment [1], binding was characterised by a dissociation constant (Kd) of 113 µM.
